# Assay results from patent US20200384066A1.
# Biological target: angiogenin (UniProt P03950)
# Assay: phage ELISA; angiogenin coated at 4 ug/mL, negative control phage, anti-g8p antibody and HRP secondary
# Sequence of angiogenin (P03950 25-147 limits assumed): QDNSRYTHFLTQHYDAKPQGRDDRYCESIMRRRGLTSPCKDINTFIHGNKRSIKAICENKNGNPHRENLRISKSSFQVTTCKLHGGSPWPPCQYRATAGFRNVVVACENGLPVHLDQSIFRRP
substance,measurement,value
wild type phage,OD value (450 nm),0.191 OD
